In patent US20080227707A1, “BIOACTIVE PEPTIDES AND UNIQUE IRES ELEMENTS FROM MYELIN PROTEOLIPID PROTEIN PLP/DM20” (WAYNE STATE UNIVERSITY, priority 2002, published 2008):
Peptide text beside a SMILES is read from it. * marks the point of attachment. Cbz = O=C(OCc1ccccc1)*

What was measured:
[1] = test system: 293, NT2, and 293-Tet-On cell lines; experiment: Proteasome inhibition assay, MG132-induced cell death; format: cell-based, human; settings: 50 μM MG132, 24 hrs
Experimental: Proteasome inhibition assays were carried out in stably transfected cell lines using MG132 (Z-Leu-Leu-Leucinal)—a potent, cell permeable inhibitor of the 26S proteasomal complex (Calbiochem, San Diego, Calif.). The MG132 concentration in all experiments (50 μM) was sufficient to insure 100% cell death of all 293, NT2, and 293-Tet-On cell lines in 24 hrs.
To confirm that 293 and NT2 cultures undergo apoptosis within 24 hrs post treatment with 50 μM MG132, cells were assayed for poly(ADP-ribose) polymerase (PARP) cleavage by caspase-3. The 293 and NT2cultures were grown in 100 mm dishes to ˜90% confluence and passed at equal density into a six well tray. At 70-80% confluence, wells were treated with 50 μM MG132 in DMEM and harvested for proteins at 0.5 hrs, 1 hr, 2 hrs, 4 hrs, 6 hrs, and 24 hrs after treatment. The PARP cleavage products were resolved on 4% SDS PAGE gels. The Western blots were incubated with an anti-PARP (BIOMOL Research Laboratories) primary antibody diluted 1:2000 in 3% BSA, and a HRP conjugated goat anti-mouse secondary antibody (Amersham) diluted 1:2500 in 3% BSA.

human 293 cell line = experiment: Colony formation assay after transfection and G418 selection; format: cell-based; settings: 293 cells
Experimental: Transfections were performed in 100×20 mm dishes using the Profection® Mammalian Transfection System—a calcium phosphate transfection kit (Promega, Madison, Wis.). Cells grown to 50-70% confluence were fed 3 hrs prior to addition of the calcium phosphate/DNA mixture. A standard transfection assay contained 15 μg of plasmid DNA, while double transfections were done with 10 μg of each plasmid (20 μg total). The culture medium was removed 24 hrs post transfection and cells were processed for microscopic analysis or passed for G418 or Hygromycin B selection 48 hrs post transfection.
All constitutive expression cell lines were isolated by selection with the G418 antibiotic. 24 hrs after cell passage (see above), transfected 293 and NT2 cells were treated with 500 μg/mL G418 (Invitrogen Life Technologies) in DMEM. The selection medium was changed every second day for 2-2.5 weeks, during which the majority of cells detach and G418 resistant colonies emerge. Depending upon the number and density of colonies, surviving cells were grown for 3-5 days in G418-free medium prior to subcloning. Once colonies reached the appropriate size, each plate was briefly examined for fluorescence, and colonies with the lowest number of nonfluorescent, contaminating cells were marked for subcloning. […]

293 cells = experiment: Viability of PIRP expressing cells during MG132-induced cellular stress and apoptosis (Trypan Blue exclusion); format: cell-based, human; settings: 293 control cells = 100%, not statistically significant, n=2
Experimental: FIGS. 6A-6C are bar graphs showing growth factor activity associated with the PIRP-M and PIRP-L proteins. […] Colony number was determined after calcium phosphate transfection of 293 cells and G418 selection. The control plasmid was pBSII vector comprising the […] but no mammalian selectable marker. The PLP/DM20-GFP Pro-constructs are missing the CMV promoter and the PLP/DM20-GFP M1L vectors contain the Met^1 mutation and are unable to translate the full-length proteolipid proteins (see description of FIGS. 2B-2C). Increase in colony number following PIRP expression was highly stastically significant (Student's t-test). […] Pools of 293 cells derived from the transfectants (see above) were grown in toxic (50 μM) and subtoxic (25 μM) concentrations of MG132 for 24 hrs. Viable cells were identified using Trypan Blue exclusion. […] Subconfluent 293 cultures were treated with CM for 48 hrs and 72 hrs. Total and viable cell numbers were determined using Trypan Blue exclusion and expressed as % of control (293 cells treated with 293 CM) cell number.
Although PIRP expression increased colony number, the biochemical mechanism of this response has yet to be defined. […] After 24 hrs, viable cells were counted (Trypan Blue exclusion) (FIG. 6B).

CC(C)C[C@@H](C=O)NC(=O)[C@H](CC(C)C)NC(=O)[C@H](CC(C)C)NC(=O)OCc1ccccc1 [MG132, Z-Leu-Leu-Leucinal] (Cbz-Leu-Leu-Leu-aldehyde)
cell death [1]: 100%

PIRP-L: ~7 kDa polypeptide translated from Met234 of PLP/DM20 mRNA via IRES; SEQ ID NO:8 (MTFHLFIAAFVGAAATLVSLLTFMIAATYNFAVLKLMGRGTKF; listed as Homo sapiens)
colony count in PIRP-L transfectants compared to PIRP-M transfectants (human 293 cell line; p=0.02): increased colony count
cellular viability (viable cell number), % of control cell lines (293 cells; MG132-treated, 25 μM and 50 μM, 24 hrs): small increase in viability
cellular viability (viable cell number), % of control cell lines (293 cells; untreated cells): not detected

B1: PIRP-M: ~10 kDa polypeptide translated from Met205 of PLP/DM20 mRNA via IRES; SEQ ID NO:6 (protein, listed as Homo sapiens)
chain: MYGVLPWNAFPGKVCGSNLLSICKTAEFQMTFHLFIAAFVGAAATLVSLLTFMIAATYNFAVLKLMGRGTKF
increase in colony number over controls (human 293 cell line; calcium phosphate transfection, G418 selection, colonies grown 2 weeks, vs pBSII PIRP-M control DNA lacking G418 resistance): 600-700 fold
